# Reference: US20250043022A1 (JIANGSU HENGRUI PHARMACEUTICALS, published 2025)
# Columns and labels:
# [1] = target: T1, human PSMA on cells (Cho-hPSMA, CHO-K1 cells overexpressing full-length human PSMA) (human, UniProt Q04609 1-750); assay: hybridoma screening on cells
# T1 construct: whole, on cells; also called cell surface PSMA; PSMA-expressing Lncap cells
# [2] = target: T1, human PSMA on cells (Cho-hPSMA, CHO-K1 …); assay: flow cytometry, Cho-hPSMA; antibody at 20 nM
# Protocol: (§1) Experiment 1: Cho-hPSMA was cultured in F12 medium with 10% FBS. The medium to which cells were inoculated was incubated in a 37° C., 5% CO₂ incubator for 2 days, and cells were added to a cell plate at 1×10⁵ cells/well and washed by centrifugation. Antibodies were serially diluted, and the antibody solutions were added to the cell plate at 100 μL/well. The plate was incubated at 4° C. for 1 h and then washed. An AF488-Goat Anti-human IgG Fc fluorescent secondary antibody dilution (1:400) was added to the cell plate at 100 μL/well, and the plate was incubated at 4° C. for 1 h and then washed. PBS was added to the cell plate at 100 μL/well before plate reading.
# (§2) Experiment 3: The binding activity of bispecific antibodies was measured using the method of experiment 1.
# [3] = target: T1, human PSMA on cells (Cho-hPSMA, CHO-K1 …); assay: flow cytometry, Cho-hPSMA; antibody at 4 nM
# Protocol: as §1, §2
# [4] = target: T1, human PSMA on cells (Cho-hPSMA, CHO-K1 …); assay: flow cytometry, Cho-hPSMA; antibody at 100 nM
# Protocol: as §1, §2
# [5] = target: T1, human PSMA on cells (Cho-hPSMA, CHO-K1 …); assay: flow cytometry, Cho-hPSMA; antibody at 0.8 nM
# Protocol: as §1, §2
# hIL5 = hIL5 (human, UniProt P05113 20-134); assay: ELISA
# hTSLP = hTSLP (human, UniProt Q969D9 29-159); assay: ELISA
# T1 sequence (Q04609 whole entry): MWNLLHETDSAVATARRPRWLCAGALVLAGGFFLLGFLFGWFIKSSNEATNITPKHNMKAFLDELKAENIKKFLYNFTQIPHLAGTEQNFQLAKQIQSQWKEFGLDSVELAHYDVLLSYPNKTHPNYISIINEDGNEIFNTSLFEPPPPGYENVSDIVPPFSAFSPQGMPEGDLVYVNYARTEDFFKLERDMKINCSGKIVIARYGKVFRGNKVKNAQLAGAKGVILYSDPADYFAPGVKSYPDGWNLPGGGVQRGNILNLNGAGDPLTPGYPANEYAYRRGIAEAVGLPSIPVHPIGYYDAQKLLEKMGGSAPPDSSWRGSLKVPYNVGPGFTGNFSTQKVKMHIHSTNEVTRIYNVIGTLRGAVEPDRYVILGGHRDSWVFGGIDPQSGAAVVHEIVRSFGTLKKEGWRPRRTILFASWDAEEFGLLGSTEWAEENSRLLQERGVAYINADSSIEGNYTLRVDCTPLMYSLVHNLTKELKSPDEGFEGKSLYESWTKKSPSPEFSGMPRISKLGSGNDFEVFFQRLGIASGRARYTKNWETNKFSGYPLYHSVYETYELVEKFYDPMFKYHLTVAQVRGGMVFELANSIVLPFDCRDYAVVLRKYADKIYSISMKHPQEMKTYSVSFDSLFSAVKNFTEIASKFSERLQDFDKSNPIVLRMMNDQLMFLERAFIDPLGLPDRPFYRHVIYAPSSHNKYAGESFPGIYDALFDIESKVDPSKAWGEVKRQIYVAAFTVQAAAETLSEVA
binder,measurement,setting,value
"murine antibody 19 (antibody, V domains shown, murine hybridoma antibody) VH: EVKLVESEGGLVQPGSSMKLSCTASGFTFSDYYMAWVRQVPERGLEWVANINYDGSSTYYLDSLKSRFIISRDNAKNILYLQMSSLKSEDTATYYCARGGDYWDAMDYWGQGTSVTVSS VL: DIQMTQTTSSLSASLGDRVTISCRASQDISKYLNWYQQKPDGTVKLLIYYTSSLHSGVPSRFSGSGSGTDYSLTISNLEQEDIATYFCQQGNRLPRTFGGGTKLEIK",binding result,[1],binds
"murine antibody 15 (antibody, V domains shown, murine hybridoma antibody) VH: EFQLQQSGPELVKPGASVKISCKASGYSFTDHNMNWVKQSNGKSLEWIGLINPNYGTADYNQKFKGKATLTVDQSSTTAFMQFTSLTSEDSAVYYCARGSSLFAYWGQGTLVTVSA VL: DIVMTQSHKFMSTSVGDRVNITCKASQGVDTAVAWYQQKPGQSPKLLIYWASTRHTGVPDRFTGSGSGTDFTLTISNVQSEDLADYFCQQYSRYPLTFGAGTKLELK",binding result,[1],binds
"murine antibody 43 (antibody, V domains shown, murine hybridoma antibody) VH: EVKFEESGGGLVQPGGSMKLSCVASGFTFSNYWMNWLRQSPEKGLEWVAQVRLKSDNYATHYAESVKGRFTISRDDSKSSAYLQMNNLRAEDTGIYYCSENYYGPAGPFDFWGQGTTLTVSS VL: DIVMTQSQKFMSTTVGDRVSITCKASQNVHTSVAWYQQKPGQSPKLLIYSASNRYSGVPDRFTGSGSGTDFTLTINNMQSEDLADYFCQQYSSYPLTFGVGTKLELK",binding result,[1],binds
"murine antibody 46 (antibody, V domains shown, murine hybridoma antibody) VH: EVQLVESGGDLVKPGGSLKLSCAASGFTFSNYGMSWVRQTPDKRIKWVATIGSGGGYTYYSDSVKGRFTISRDNAKNTLYLQMSSLKSEDTAIYYCVRHPQIGYWGQGTLVTVSA VL: DIVMTQSQKFMSTTVGDRVTITCKASQSVGTAVAWYQQKPGQSPKLLIYSASSRYTGVPDRFTGSGSGTDFTLTITNMQSEDLADYFCHQYSSYPLTFGGGTKLEIK",binding result,[1],binds
"murine antibody 2 (antibody, V domains shown, murine hybridoma antibody) VH: EVKLVESEGGLVQPGSSMKLSCTASGFTFSDYYMAWVRQVPEKGLEWVANINFDGSSTYYLDSLKSRFIISRDNAKNILYLQMSSLKSEDTATYYCARDLDGYYGYFDVWGTGTTVTVSS VL: QIVLTQSPAIMSASPGEKVTISCSASSSVSHMYWYQQKPGSSPKPWIYRTSNLASGVPARFSGSGSGTSYSLTISSMEAEDAATYYCQQYHSYPLMFGAGTKLELK",binding result,[1],binds
"murine antibody 27 (antibody, V domains shown, murine hybridoma antibody) VH: EVKLVESEGGLVQPGSSMKLSCTASGFTFSDYYMAWVRQVPEKGLEWVANINYDGSSTYYLDSLKSRFIISRDNAKNILYLQMSSLKSEDTATYYCARDLDGYYGYFDVWGTGTTVTVSS VL: QIVLTQSPAIMSASPGEKVTISCSASSSVSYMYWYQQKPGSSPKPWIYRTSNLASGVPARFSGSGSGTSYSLTISSMEAEDAATYYCQQYHSYPLTFGAGTKLELK",binding result,[1],binds
"15-F2 (bispecific antibody, PSMA x CD3, Format 2) heavy 1: not shown light 1: DIQMTQSPSSLSASVGDRVTITCKASQGVDTAVAWYQQKPGKSPKLLIYWASTRHTGVPDRFSGSGSGTDFTLTISSLQPEDVATYYCQQYSRYPLTFGQGTKLEIKRTVAAPSVFIFPPSDEQLKSGTASVVCLLNNFYPREAKVQWKVDNALQSGNSQESVTEQDSKDSTYSLSSTLTLSKADYEKHKVYACEVTHQGLSSPVTKSFNRGEC heavy 2: not shown light 2: not shown",fluorescence intensity,[2],30700
same,fluorescence intensity,[3],27800
same,fluorescence intensity,[4],26900
same,fluorescence intensity,[5],15000
HJ-9 (bispecific antibody) chain 1: not shown chain 2: DIQMTQSPSSVSASVGDRVTITCRASQDIANYLSWYQQKPGKSPKLLIYGTSNLEVGVPSRFSGSRSGTDFTLTISSLQPEDFATYYCLQDKEFPRTFGGGTKVEIKRTVASSGAPRFLTCPKASVVSVGKDATLSSQIVGNPFPQVSWEKDKQPVTAGVRFRLAQDGDLYRLKILDLQLSDSGQYVSRARNAHGEAFACLGLQVDAEA chain 3: EVQLVQSGAEVKKPGSSVKVSCKASGYTFSNYLIEWVRQAPGQGLEWIGVIDPGVGDTNYNENFKGRATLTADKSTSTAYIELSSLRSEDTAVYYCAREDNTGTAFDYWGQGTTVTVSSASTKGPSVFPLAPSSKSTSGGTAALGCLVKDYFPEPVTVSWNSGALTSGVHTFPAVLQSSGLYSLSSVVTVPSSSLGTQTYICNVNHKPSNTKVDKKVEPKSCDKTHTCPPCPAPEAAGGPSVFLFPPKPKDTLMISRTPEVTCVVVDVSHEDPEVKFNWYVDGVEVHNAKTKPREEQYNSTYRVVSVLTVLHQDWLNGKEYKCKVSNKALPAPIEKTISKAKGQPREPQVCTLPPSREEMTKNQVSLSCAVKGFYPSDIAVEWESNGQPENNYKTTPPVLDSDGSFFLVSKLTVDKSRWQQGNVFSCSVMHEALHNHYTQKSLSLSPGK chain 4: SIVMTQTPLSLSVTPGQPASISCKASQSVSSDVTWYLQKPGQSPQLLIYYVSEHYTGVPDRFSGSGYGTDFTLKISRVEAEDVGVYYCQQHHRFPLTFGQGTKLEIKRTVAAPSVFIFPPSDEQLKSGTASVVCLLNNFYPREAKVQWKVDNALQSGNSQESVTEQDSKDSTYSLSSTLTLSKADYEKHKVYACEVTHQGLSSPVTKSFNRGEC,EC50,hIL5,10.9 nM
same,EC50,hTSLP,3.18 nM
HJ-10 (bispecific antibody) chain 1: not shown chain 2: DIQMTQSPSSVSASVGDRVTITCRASQDIANYLSWYQQKPGKSPKLLIYGTSNLEVGVPSRFSGSRSGTDFTLTISSLQPEDFATYYCLQDKEFPRTFGGGTKVEIKRTVASSGAPRFLTRPKASVVSVGKDATLSCQIVGNPFPQVSWEKDKQPVTAGVRFRLAQDGDLYRLKILDLQLSDSGQYVCRARNAHGEAFACLGLQVDAEA chain 3: EVQLVQSGAEVKKPGSSVKVSCKASGYTFSNYLIEWVRQAPGQGLEWIGVIDPGVGDTNYNENFKGRATLTADKSTSTAYIELSSLRSEDTAVYYCAREDNTGTAFDYWGQGTTVTVSSASTKGPSVFPLAPSSKSTSGGTAALGCLVKDYFPEPVTVSWNSGALTSGVHTFPAVLQSSGLYSLSSVVTVPSSSLGTQTYICNVNHKPSNTKVDKKVEPKSCDKTHTCPPCPAPEAAGGPSVFLFPPKPKDTLMISRTPEVTCVVVDVSHEDPEVKFNWYVDGVEVHNAKTKPREEQYNSTYRVVSVLTVLHQDWLNGKEYKCKVSNKALPAPIEKTISKAKGQPREPQVCTLPPSREEMTKNQVSLSCAVKGFYPSDIAVEWESNGQPENNYKTTPPVLDSDGSFFLVSKLTVDKSRWQQGNVFSCSVMHEALHNHYTQKSLSLSPGK chain 4: SIVMTQTPLSLSVTPGQPASISCKASQSVSSDVTWYLQKPGQSPQLLIYYVSEHYTGVPDRFSGSGYGTDFTLKISRVEAEDVGVYYCQQHHRFPLTFGQGTKLEIKRTVAAPSVFIFPPSDEQLKSGTASVVCLLNNFYPREAKVQWKVDNALQSGNSQESVTEQDSKDSTYSLSSTLTLSKADYEKHKVYACEVTHQGLSSPVTKSFNRGEC,EC50,hIL5,20.8 nM
same,EC50,hTSLP,3.17 nM
HJ-11 (bispecific antibody) chain 1: not shown chain 2: DIQMTQSPSSVSASVGDRVTITCRASQDIANYLSWYQQKPGKSPKLLIYGTSNLEVGVPSRFSGSRSGTDFTLTISSLQPEDFATYYCLQDKEFPRTFGGGTKVEIKRTVASSGCPRFLTRPKASVVSVGKDATLSCQIVGNPFPQVSWEKDKQPVTAGVRFRLAQDGDLYRLKILDLQLSDSGQYVCRARNAHGEAFACLGLQVDAEA chain 3: EVQLVQSGAEVKKPGSSVKVSCKASGYTFSNYLIEWVRQAPGQGLEWIGVIDPGVGDTNYNENFKGRATLTADKSTSTAYIELSSLRSEDTAVYYCAREDNTGTAFDYWGQGTTVTVSSASTKGPSVFPLAPSSKSTSGGTAALGCLVKDYFPEPVTVSWNSGALTSGVHTFPAVLQSSGLYSLSSVVTVPSSSLGTQTYICNVNHKPSNTKVDKKVEPKSCDKTHTCPPCPAPEAAGGPSVFLFPPKPKDTLMISRTPEVTCVVVDVSHEDPEVKFNWYVDGVEVHNAKTKPREEQYNSTYRVVSVLTVLHQDWLNGKEYKCKVSNKALPAPIEKTISKAKGQPREPQVCTLPPSREEMTKNQVSLSCAVKGFYPSDIAVEWESNGQPENNYKTTPPVLDSDGSFFLVSKLTVDKSRWQQGNVFSCSVMHEALHNHYTQKSLSLSPGK chain 4: SIVMTQTPLSLSVTPGQPASISCKASQSVSSDVTWYLQKPGQSPQLLIYYVSEHYTGVPDRFSGSGYGTDFTLKISRVEAEDVGVYYCQQHHRFPLTFGQGTKLEIKRTVAAPSVFIFPPSDEQLKSGTASVVCLLNNFYPREAKVQWKVDNALQSGNSQESVTEQDSKDSTYSLSSTLTLSKADYEKHKVYACEVTHQGLSSPVTKSFNRGEC,EC50,hIL5,9.46 nM
same,EC50,hTSLP,3 nM
"murine antibody 71 (antibody, V domains shown, murine hybridoma antibody) VH: QVQLVETGGGLVRPGNSLKLSCVTSGFTFSNYRMHWLRQPPGKRLEWIAVITVKSDNYGSSYAESVKGRFAISRDDSKSSVYLEMNRLREEDTATYFCSRELGQVLVFWGQGTLVTVSA VL: DVVVTQTPLSLPVSLGDQASISCRSSQSLVHSYGNTYLHWYLQKPGQSPKLLIYKVSNRFSGVPDRFSGSGSGTDFTLKISRVEAEDLGVYFCSQTTHVPWTFGGGTKLEIK",binding result,[1],binds
"murine antibody 50 (antibody, V domains shown, murine hybridoma antibody) VH: QVQLQQSGAELARPGASVKLSCKASGFTFTNYGISWVKQRTGQGLEWIGEIYPRSGNTYYNTNFKGEATLTADKSSSTAFMELRSLTSEDSAVYFCARNPFTTVVEGFAFWGQGTLVTVSA VL: DVFMTQSPLSLPVSLGDQASISCRSSQSILHSNGNTYLEWYLQKPGQSPKLLIYRVSNRFSGVPDRFSGSGSGTDFTLKISRVEAEDLGVYYCFQGLHVPPTFGAGTKLELK",binding result,[1],binds
